# Biological target: Gankyrin (Gank) (UniProt Q9Z2X2)
# Test: Gank IP, C/EBPα Western blot
# Conditions: reference: wild-type mice, DEN-treated; sites S193
substance,measurement,value
"C/EBPα (from UniProt P53566) C/EBPα-S193A mice, DEN-treated",binding against the reference,lost

# Reference: article PMC8221081
